A protein production outcome set (Wang et al. 2014)

Assay: label from the status in PepcDB records

MFQENRTNELVILKEIAETLNTSNDTYHVLQAVLEKLLSVTGLTTGWIFLADEDGRYTKLIDYQLPEALTYENKRPMCEGECWCLRGFVDGKLERAVNIIECKRINNAIEYNWGDTEGILHHATVPLKAGGEKFGLLNVASPGKTHFSEEELVLLQSVAFQIGTALKRAKLYENEKRRAH
protein production: failed

MFQPLLDAFIESASIEKMVSKSPPPPLKIAVANWWGDEEIKEFKKSVLYFILSQRYAITLHQNPNESSDLVFSNPLGAARKILSYQNTKRVFYTGENESPNFNLFDYAIGFDELDFNDRYLRMPLYYAHLHYEAELVNDTTAPYKLKDNSLYALKKPSHHFKENHPNLCAVVNDESDLLKRGFASFVASNANAPMRNAFYDALNSIEPVTGGGSVRNTLGYKVGNKSEFLSQYKFNLCFENSQGYGYVTEKILDAYFSHTIPIYWGSPSVAKDFNPKSFVNVHDFNNFDEAIDYIKYLHTHPNAYLDMLYENPLNTLDGKAYFYQDLSFKKILDFFKTILENDTIYHNNPFIFYRDLHEPLISIDDLRVNYDDLRVNYDDLRVNYDDLRVNYDDLRVNYDDLRVNYDDLRVNYDDLRVNYDDLRVNYDDLRVNYDRLLQNASPLLELSQNTTFKIYRKAYQKSLPLLRTIRRWVKK
protein production: failed

MFQTGGLIVFYGLLAQTMAQFGGLPVPLDQTLPLNVNPALPLSPTGLAGSLTNALSNGLLSGGLLGILENLPLLDILKPGGGTSGGLLGGLLGKVTSVIPGLNNIIDIKVTDPQLLELGLVQSPDGHRLYVTIPLGIKLQVNTPLVGASLLRLAVKLDITAEILAVRDKQERIHLVLGDCTHSPGSLQISLLDGLGPLPIQGLLDSLTGILNKVLPELVQGNVCPLVNEVLRGLDITLVHDIVNMLIHGLQFVIKV
protein production: failed

MFQYRFKRSFSSDPNLSDTIGDRLFDLMEATFPGLNDLAECGRKLGAPWEKASTPFIRFHDDVAITHVGVLEIPMVILGQRVTVGGIHGVATREEFRRRGYYREVMEEALEYCDQIYETLVLTTPEPEYYLPFGFRVVEEYIFH
protein production: failed

MFRALKDKKRFIRNLILTFIIFLFIFLLYQFEAFRDIIFIVLVSGIFAYILKPLYRFLCERTKINKNFLAMAIVLSVIFLILFFLTVLIPSMFKEGESFDGLINGIEFFINDLIMKMKFMELGIFDVIEAQVTEKLNILLVSFATSIINNLISFSENILAFAVIPVLAYYFLAYGDLLSNKFLYCCPMEKRALLKNLGRDVDKVLGKYILGQLLLSLLVGVMTFIGMLILGIKFPLLLAFLNALLNIIPYFGAVLGAIPAIVVALVEGPNKILWVILTFLIIQQIEGNLIAPKITAESIDMHPILIIILLLIGEQIGGLLGMVFIVPIAVVIKVLFDDWDYYMFL
protein production: failed

MFRCQTKGWCKSLKPKVFLEFVEIKSLIASVLPFVLGSMYAYYNYHQLHLGYLLLFFIASSLFHMATNANDNYQDFLHAPRNDDNQEFLQETNVVGVNQISIGQARTITFGLAGISLIIGLWLVTQTGLPLLWMGLYSYAVGYFYAGGPKPISQGPFGEFFSGFTMGFMIFWIAVFINTYDTAAITWQSTLAVLIASGLAIFAISNIMLANNICDMDEDIALGRHTILYYLGKPVMLQVFAWSYVAGYACLVIAVLMGVLPKFSLLTLLSIIPVWKNTRVFLHKQVKRETFTISIKNATLICLSFIVFMGLGLIFN
protein production: failed

MFRFNLCVLLFATLATLSAAQEQTPAYVGSAECRDCHTKAAEAWEGSHHAKAWTAPTAENIVADFNDTEFRHDGTLTRFRVEDGRHYITVTEKDGVTTDYPVHSVAGIEPLQQYLLETEPGRIQSFDVVWDTIKQEWFHLYPDQDLPPDDGLHWTGPYKNWNARCAECHATGFEKNYSPVTRSYSSVPVEIGVGCEACHGPGSAHIAWATGKSLEEPLTGLSEYRLTIDYDAGTETVLQQCASCHSRREAHFDGNPVPGIPFNDAYALALLRPGAYHADGQILDEVYVYGSFLQSKMYQQGVSCSNCHEVHSAELKAEGNGVCTQCHSPAGNPSFTTLDSKNYDDPSHHYHEAGTEGAQCKSCHMIERVYMGVDGRRDHSFRIPRPDISLETDSPNACTDCHSDQSSAWAAAAIEEWYPDSENRGLHYGQVLAAGRANAVAARVPLTDLAGDTTQPGIARATALWLLEQSGDATLGAELSSMLTDTDPLVRAAAASAHGLFPPAERAAALEPALDDPRRMVRIAAGKTLLDVPRSALTPSASERLGAALREWQAGLLNRADFPETHIILAGTALTMRNFEGAERAFREVVLMDPQREEAWVMLVRIADAMRGPQAAAQVLDEALQAVPGSDTLNSMRSESLLPPQ
protein production: failed

MFRIIQPHRWKLAVLMIAANLGLLAFLAFGTIKHVSEWQWLDIVGEGGSALLSLVWLFLVFKSRPAGRVTNYLSVGLSCVFFSWWIDALDEFIRLPAEIEWDHWLESGPMPVGLILLTLGIYHWHREQLAISAQMEKRERGFREHRLYDKLTPLGSADYLKRQLIVSLEQSLCQQQPLSLLALDLDGFSTINNAFGHAEGDEVLSAISHLLVLNLRRQDLLCRLAGDRFVVLMPNTGESQAKLLALELQQAVASLAHKTRQQGERLHLSASVAVVMALNETPDNLLRRLNLSLARARRPLTRTA
protein production: failed

MFRPENVQALAGLALTLGLCWLVSENRKRFPWGLAIGAVVIQVLLVLVLFGLPQAQQMLRGVNGAVEGLAASTQAGTAFVFGFLAGGDQPYPVSNPGAGFIFAFRVLPVILVVCALSALLWHWKILKWLAQGFGFVFQKTLGLRGPPALATAATIFMGQVEGPIFIRAYLDKLSRSELFMLIAVGMACVSGSTMVAYATILADVLPNAAAHVLTASIISAPAGVLLARIIVPSDPMEKSADLDLSTEDKTYGSSIDAVMKGTTDGLQIALNVGATLIVFVALATMVDKVLGAFPPVGGEPLSIARGLGVVFAPLAWSMGIPWKEAGTAGGLLGVKLILTEFTAFIQLSKVGEALLDERTRMIMTYALCGFANIGSVGMNVAGFSVLVPQRRQEVLGLVWKAMMAGFLATCLTASLVGLMPRSLFGL
protein production: failed

MFRWFIAAIEDVYLPVPVMHLLTSNFAPFPWQHLDYTVVQLTKQDSNCLQALFERCTDFFNLTTGQPPASTAAEAEFVDVPAGKTPEDLHVFGLHHPQKGLIGTIIAVQDYPEAATWWIGTMLIDPVYRSQGVGSAFYQAFERWLAAQGVTGIELCAIASNTSGRAFWQRMGFEEIRQTPSRSFGQRHHIAHVYRRCLILLTRRAEFESYDPLNSLNAYLCKTEVINWQHPDIQALAQQLAAGHETPVVIAQACFEWVRDAIRHSVDYQMNPVTWRASDVLQHKTGYCFAKSHLLAALLRANQIPAGFCYQRLSIDDRGTPYSLHGFNAVYLPITGWHRVDPRGNKPGIDTKFSPPIEHLAYQPKLDEEADFSAILAEPLAIVVTALQTHATWDALLHHLPDMTPNTATTIGLYCY
protein production: failed

MFSKGVDSLDRTQDDPVHCMPGLTAGLSGRLLLLTVIFVMIAEVLIFVPSVANMRLSWLRDRLNTAAAAGAVIDGLQAELPRSVQNDTLMATGAKLIALRKDGTSRLLAVAETPPGVDEQYDLSDVSQAAAVRDAFSTLLFGGNRVIRVFDVVGDSDTIIELVLGENKLRAAMLAYARNVFLISIVLSLVTAGLIFISINRIMIRPIRRLTLGMQNFSEDPGNPERIFVPEEGTDELSVAGRHLADMQTELQKTLRQQKNLVDLGLAVSKINHDMRNILSSAQLMSDRLVDAKDPMVRSFAPKLLRTIDRAVAYTGEVLAYGQATEGAPKRKIVPLSLLVRDVRDILALDPDSGIEFHDSVPPDLTVDADSEQLFRVIHNLCRNAVQALQSDVANSAPRHLSISAQRAGSVVSIVIDDNGPGMPRKAKENLFSAFRGSARSGGTGLGLVIARELVLAHGGTIALVEKPGPGTQFRIEIADRAASIQAARTA
protein production: failed

MFSMILSGLICGALLGFVMQRGRFCLTGGFRDMYIVKNNRMFYALLIAISVQSVGVFALIQAGLLTYEAGAFPWLGTVIGGYIFGLGIVLAGGCATGTWYRAGEGLIGSWIALFTYMVMSAVMRSPHASGLNQTLQHYSTEHNSIAETFNLSVWPLVAVLLVITLWVVMKELKKPKLKVATLPPRRTGIAHILFEKRWHPFVTAVLIGLIALLAWPLSEATGRMFGLGITSPTANILQFLVAGDMKYINWGVFLVLGIFVGSFIAAKASREFRVRAADAQTTLRSGLGGVLMGFGASIAGGCSIGNGLVMTAMMTWQGWIGLVFMILGVWTASWLVYVRPQRKARLATAAAN
protein production: failed

MFSPEQIAGKDVRLLRIKKEGSLDLALEGGVDSPVGKVVVSAVYEGGAAERHGGVVKGDEIMAINGKIVTDYTLAEAEAALQKAWNQGGDWIDLVVAVCPPKEYDDELTFF
protein production: not failed

MFSQWVFLSVLALAVPSFAWAEDAVSDLAREQSKAEQGDKRGDELFAEFTRLRQAAETGEPQALFDFGAYFYQQQNYASAREWWGKAAAAGMVRAQIQLAMLYRDGDGGPQDKTEAARWFRKAAEQGDAAAQNEMGVLYWRGEGVDQDRVKAGTWFERAAASGSEDAETNLGWFYLDDSQGVYSATSDEEAALLDRYAGSREKAFQWFCKAATQGDARAQFKVGEAYWNGSGAGMNKLQARLWLEKAAQQQDADAIAWLESAANAAWYTRLENWIHAALDGELSGVADCSGAADRRHSGRGMEGAPSDPEAVEASAEDAQQAVEAASQ
protein production: failed

MFTAYKKFWTNYVNFTGRSSRSDYWWAILCNSLIILPFVFTATSIFYSNLIEFIRGSAISTFSGEESVLSVYSIDVIILFIIIVLFSLAILLPNLAISIRRLRDAGFHWSLIFVPIGAALFSFLGLIPFLRAIVSIIVWFALIFYYILLCQPSKPYQAPVQPIAPQQPQQMAPQGQPVQAQVQPQSQTTPQQPQTPPVQQPQAPTNQQ
protein production: failed

MFTHLDENQQPRMVDISQKVAGDRRAVAQCIVQLPKAIKDYLTGQEIFLKKGPVIQTAIIAGTMAVKKTADLIPFCHTLPIHGCKFDINIVYQKRDYLEIFLQCAVNTNYKTGVEMEALCGVSVAALTIYDMCKSISSEIIIKNTKLIEKTGGKADVSQTPLYGLVLTGGKSRRMGKDKALINYQGQPHGQYIYDLLAKYCEQVFLSARPSQWQGTPLENLPTLVDRGESVGPMSGILTALQSYPGVNWLIIACDLAYINSTMVEKLIAQARQDLVATCYENADQGFPEALCGFYTPLALQLFTKAQNIGLHCPVKILQMADCQLIKPDNLFDIANINSPEDYGQINLEHHHHHH
protein production: not failed

MFTMDDLNQMDTQTLTDTLGSIFEHSSWIAERSAALRPFSSLSDLHRKMTGIVKAADRETQLDLIKKHPRLGTKKTMSDDSVREQQNAGLGKLEQQEYEEFLMLNEHYYDRFGFPFILAVKGKTKQDIHQALLARLESERETEFQQALIEIYRIARFRLADIITEKGETQMKRTMSYGKGNVFAYRTYLKPLTGVKQIPESSFAGRDNTVVGVDVTCEIGGEAFLPSFTDGDNTLVVATDSMKNFIQRHLASYEGTTTEGFLHYVAHRFLDTYSHMDTITLTGEDIPFEAMPAYEEKELSTSRLVFRRSRNERSRSVLKAERSGNTITITEQYSEIMDLQLVKVSGNSFVGFIRDEYTTLPEDGNRPLFVYLNISWQYENTNDSYASDPARYVAAEQVRDLASTVFHELETPSIQNLIYHIGCRILARFPQLTDVSFQSQNHTWDTVVEEIPGSKGKVYTEPRPPYGFQHFTVTREDAEKEKQKAAEKCRSLKA
protein production: failed

MFVFMLLLLLPFTISKAKDFPANPIEKAGYKLDFSDEFNGPTLDREKWTDYYLPHWCKDPESAKANYRFENGSLVEYITEDQKPWCPEHDGTVRSSAIMSFDKSWIHNFSGTTDNHERNEWRGYTTKYGYFEIRAKLSNTGGGGHQAWWMVGMQDDTNDWFNSKQTGEIDILETFFSKKDTWRIAAYGWNDPNFQTSWTISEDKVPSGDPTSEYHIYAMEWTPTALKFYYDNELFKVIYGSPDYEMGTILNIYTDAGSGAHNDVWPKEWAIDYMRVWKPVDGYKESESLNNYLIRNRQTGKFLYIEENNDKVSYGDITLKNEKNAKWSKEYRDGYTLLKNNETGEYLNIENQTGYIEHGKVPKTWWSAQWSEVPVDGYTRFVNRWKPNMSIHTESYEGVLQYGNVPNTYWTSQWQLIPVE
protein production: not failed

MFVGFLSGLIVMGALLSILLVLLGVMALRVFVRYILPILLILLIIRLIISGIVLLFNPHFWLFIAVVALVLWILGKIRN
protein production: failed
